One assay has as its system HIV infected cells. Format: cell-based.
In a further assay the target is gp120 (Human immunodeficiency virus type 1 group M subtype B, UniProt P03375). Format: binding, HIV-1.
The target in assay [1] is T1, rgp120 (Human immunodeficiency virus type 1 group M subtype B, UniProt P03375). The assay is described as follows: inhibition of the binding of rCD4-HRP to rgp120 by rCD4 and CD4 peptides. Details: species or system HIV-1. Conditions: even at concentrations of 50 μM. The protocol:
The relative affinity of the CD4-peptides-OVA for rgp120 vs rCD4 was calculated by dividing the […].

The target of assay [2] is T1, rgp120. Description: direct ELISA binding of peptide-OVA to rgp120. Details: species or system HIV-1. The protocol:
CD4-peptide (41-84)-OVA (.circle-solid.); CD4-peptide (40-57)-OVA (.smallcircle.); CD4-peptide (81-92)-OVA (.box-solid.). Control peptide-OVA and OVA (.box-solid.).
Wells coated with rgp120 and blocked as described above were treated with various concentrations of peptide-OVA or OVA (control) in 100 μl and the plate was incubated for 2 hr at 25° C. The plates were washed and then incubated with rabbit IgG anti-OVA coupled to HRP (5 μl/ml) for 2 hr at 25° C. The binding of the labeled antibody was detected as described above. Linear regression curves were generated by plotting the absorption vs the concentration of peptide-OVA.
A general note: An ELISA detects its analyte on a solid surface through an enzyme-linked reagent.

Where no end group is shown, it is not given here.

This note sets out measurements from US5767072A (priority 1993, dated 1998).

Consider `CCN(CC)CCCC(C)Nc1ccnc2cc(Cl)ccc12` (centres unmarked) [chloroquine], for which, in the assay with HIV infected cells, the “anticellular activity against HIV infected cells” value was “significant anticellular activity”.

Consider GSFLTKGPSKLNDRADS [peptide 41-57], for which the “inhibition of the binding of CD4 to gp120” value in the assay with gp120 is “unable to inhibit the binding of CD4 to gp120”.

“Gln-Gly-Ser-Phe-Leu-Thr-Lys-Gly-Pro-Ser-Lys-Leu-Asn-Asp-Arg-^3 H-Ala-Asp-Ser [CD4-peptide (40-57)]”: on rgp120 [1], the “inhibition of the binding of rCD4 to gp120 by free peptides” value was “did not inhibit the binding of rCD4 to gp120”.

In the case of TYICEVEDGKEE [CD4-peptide (81-92)], the “inhibition of the binding of rCD4 to gp120 by free peptides” value with rgp120 [1] is reported as “did not inhibit the binding of rCD4 to gp120”.

B1: OVA: ovalbumin, carrier protein control (protein, UniProt P01012 2-386, looked up)
Ovalbumin: GSIGAASMEFCFDVFKELKVHHANENIFYCPIAIMSALAMVYLGAKDSTRTQINKVVRFDKLPGFGDSIEAQCGTSVNVHSSLRDILNQITKPNDVYSFSLASRLYAEERYPILPEYLQCVKELYRGGLEPINFQTAADQARELINSWVESQTNGIIRNVLQPSSVDSQTAMVLVNAIVFKGLWEKAFKDEDTQAMPFRVTEQESKPVQMMYQIGLFRVASMASEKMKILELPFASGTMSMLVLLPDEVSGLEQLESIINFEKLTEWTSSNVMEERKIKVYLPRMKMEEKYNLTSVLMAMGITDVFSSSANLSGISSAESLKISQAVHAAHAEINEAGREVVGSAEAGVDAASVSEEFRADHPFLFCIKHIATNAVLFFGRCVSP
B1: in the assay with rgp120 [2], the “binding to gp120 in direct ELISA” value was “did not bind gp120”.
